Results: patent US20240343791A1 (YUANPU BIOTECHNOLOGY WUHAN, published 2024)

Biological target: T1, human VEGFC (Cat. No. Z03286, Genscript) (human, UniProt P49767 112-227, limits assumed)
T1 construct: Bought protein; also called VC
T1 sequence (looked up): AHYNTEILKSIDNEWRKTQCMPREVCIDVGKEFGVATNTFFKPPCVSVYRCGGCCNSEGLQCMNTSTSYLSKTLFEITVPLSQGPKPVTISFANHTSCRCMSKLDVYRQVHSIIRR
Test: SPR (Biacore), protein captured on protein A chip, VEGFC as analyte, 25 C
Protocol: Human VEGFC (Cat. No.: Z03286-10 μg, Genscript, China) solutions with concentrations of 10, 5, 2.5, 1.25, 0.63, 0.31, 0.16, 0.08, and 0 (blank) nM were produced by diluted into a running buffer. Each analysis cycle comprises: (1) capturing the bispecific protein on flow pool 2 (Fc2), (2) injecting the VEGFC solution onto flow cells 1 and 2 (Fc1 and Fc2) at a rate of 30 μL/minute (for 120 seconds), (3) allowing 1×HBS-EP+buffer to flow at 30 μL/minute through the chip for 360 seconds to monitor the dissociation phase, (4) injecting a 10 mM glycine hydrochloride buffer, pH 1.5, to allow surface regeneration of the chip. The data was processed by Biacore™ Insight Evaluation software, using standard double reference and fitting with a 1:1 binding model, to determine the binding rate (kₐ) and dissociation rate (kd).

Kd: 562 pM
koff: 0.0033 s⁻¹
kon: 5.87e+06 M⁻¹ s⁻¹
B1: OPT-302 (other, not shown: a dimerising Fc or GST; small tags and cut ends)
chain: YSMTPPTLNITEESHVIDTGDSLSISCRGQHPLEWAWPGAQEAPATGDKDSEDTGVVRDCEGTDARPYCKVLLLHEVHAQDTGSYVCYYKYIKARIEGTTAASSYVFVRDFEQPFINKPDTLLVNRKDAMWVPCLVSIPGLNVTLRSQSSVLWPDGQEVVWDDRRGMLVSTPLLHDALYLQCETTWGDQDFLSNPFLVHITGNELYDIQLLPRKSLELLVGEKLVLNCTVWAEFNSGVTFDWDYPGKQAERGKWVPERRSQQTHTELSSILTIHNVSQHDLGSYVCKANNGIQRFRESTEVIVHE
notes: captured on protein A chip
